Results published in the Human Domainome abundance scans (Beltran et al. 2025).
± gives the uncertainty stated by the source.

B1: Intersectin-1, residues 1156 to 1213; numbered along this chain, Q15811 (parent)
chain: AVCQVIGMYDYTAQNDDELAFNKGQIINVLNKEDPDWWKGEVNGQVGLFPSNYVKLTT

Variants of: B1
Assay: abundance fitness (aPCA) (normalised: wild type 0, dead -1); higher = more abundant; growth selection in yeast, the domain comes from the species named
Details: Homo sapiens

Row | Variant | abundance fitness
1 | AVCQVIGMYDYTAQNDPELAFNKGQIINVLNKEDPDWWKGEVNGQVGLFPSNYVKLTT | -0.592 ± 0.19
2 | AVCQVIGMYDYTAQNDVELAFNKGQIINVLNKEDPDWWKGEVNGQVGLFPSNYVKLTT | -0.473 ± 0.09
3 | AVCQVIGMYDYTAQNDYELAFNKGQIINVLNKEDPDWWKGEVNGQVGLFPSNYVKLTT | -0.359 ± 0.24
4 | AVCQVIGMYDYTAQNDNELAFNKGQIINVLNKEDPDWWKGEVNGQVGLFPSNYVKLTT | 0.147 ± 0.2
5 | AVCQVIGMYDYTAQNDSELAFNKGQIINVLNKEDPDWWKGEVNGQVGLFPSNYVKLTT | 0.126 ± 0.091
6 | AVCQVIGMYDYTAQNDMELAFNKGQIINVLNKEDPDWWKGEVNGQVGLFPSNYVKLTT | -0.048 ± 0.15
7 | AVCQVIGMYDYTAQNDRELAFNKGQIINVLNKEDPDWWKGEVNGQVGLFPSNYVKLTT | 0.014 ± 0.08
8 | AVCQVIGMYDYTAQNDQELAFNKGQIINVLNKEDPDWWKGEVNGQVGLFPSNYVKLTT | -0.082 ± 0.14
9 | AVCQVIGMYDYTAQNDTELAFNKGQIINVLNKEDPDWWKGEVNGQVGLFPSNYVKLTT | -0.119 ± 0.12
10 | AVCQVIGMYDYTAQNDDEQAFNKGQIINVLNKEDPDWWKGEVNGQVGLFPSNYVKLTT | -0.869 ± 0.21
11 | AVCQVIGMYDYTAQNDDEPAFNKGQIINVLNKEDPDWWKGEVNGQVGLFPSNYVKLTT | -0.806 ± 0.19
12 | AVCQVIGMYDYTAQNDDEHAFNKGQIINVLNKEDPDWWKGEVNGQVGLFPSNYVKLTT | -0.858 ± 0.26
13 | AVCQVIGMYDYTAQNDDEIAFNKGQIINVLNKEDPDWWKGEVNGQVGLFPSNYVKLTT | -0.357 ± 0.2
14 | AVCQVIGMYDYTAQNDDEVAFNKGQIINVLNKEDPDWWKGEVNGQVGLFPSNYVKLTT | -0.281 ± 0.098
15 | AVCQVIGMYDYTAQNDDEGAFNKGQIINVLNKEDPDWWKGEVNGQVGLFPSNYVKLTT | -0.726 ± 0.099
16 | AVCQVIGMYDYTAQNDDECAFNKGQIINVLNKEDPDWWKGEVNGQVGLFPSNYVKLTT | -0.599 ± 0.14
17 | AVCQVIGMYDYTAQNDDEWAFNKGQIINVLNKEDPDWWKGEVNGQVGLFPSNYVKLTT | -0.838 ± 0.15
18 | AVCQVIGMYDYTAQNDDEKAFNKGQIINVLNKEDPDWWKGEVNGQVGLFPSNYVKLTT | -0.908 ± 0.33
19 | AVCQVIGMYDYTAQNDDENAFNKGQIINVLNKEDPDWWKGEVNGQVGLFPSNYVKLTT | -0.7 ± 0.18
20 | AVCQVIGMYDYTAQNDDEFAFNKGQIINVLNKEDPDWWKGEVNGQVGLFPSNYVKLTT | -0.733 ± 0.24
21 | AVCQVIGMYDYTAQNDDERAFNKGQIINVLNKEDPDWWKGEVNGQVGLFPSNYVKLTT | -0.764 ± 0.097
22 | AVCQVIGMYDYTAQNDDEAAFNKGQIINVLNKEDPDWWKGEVNGQVGLFPSNYVKLTT | -0.9 ± 0.15
23 | AVCQVIGMYDYTAQNDDETAFNKGQIINVLNKEDPDWWKGEVNGQVGLFPSNYVKLTT | -0.648 ± 0.17

Row | Variant | abundance fitness
24 | AVCQVIGMYDYTAQNDDEYAFNKGQIINVLNKEDPDWWKGEVNGQVGLFPSNYVKLTT | -1.04 ± 0.28
25 | AVCQVIGMYDYTAQNDDEEAFNKGQIINVLNKEDPDWWKGEVNGQVGLFPSNYVKLTT | -0.523 ± 0.16
26 | AVCQVIGMYDYTAQNDDESAFNKGQIINVLNKEDPDWWKGEVNGQVGLFPSNYVKLTT | -0.848 ± 0.14
27 | AVCQVIGMYDYTAQNDDEDAFNKGQIINVLNKEDPDWWKGEVNGQVGLFPSNYVKLTT | -0.776 ± 0.21
28 | AVCQVIGMYDYTAQNDDWLAFNKGQIINVLNKEDPDWWKGEVNGQVGLFPSNYVKLTT | -0.905 ± 0.16
29 | AVCQVIGMYDYTAQNDDQLAFNKGQIINVLNKEDPDWWKGEVNGQVGLFPSNYVKLTT | 0.036 ± 0.14
30 | AVCQVIGMYDYTAQNDDCLAFNKGQIINVLNKEDPDWWKGEVNGQVGLFPSNYVKLTT | -0.309 ± 0.14
31 | AVCQVIGMYDYTAQNDDNLAFNKGQIINVLNKEDPDWWKGEVNGQVGLFPSNYVKLTT | -0.954 ± 0.37
32 | AVCQVIGMYDYTAQNDDKLAFNKGQIINVLNKEDPDWWKGEVNGQVGLFPSNYVKLTT | -0.439 ± 0.18
33 | AVCQVIGMYDYTAQNDDYLAFNKGQIINVLNKEDPDWWKGEVNGQVGLFPSNYVKLTT | -0.254 ± 0.16
34 | AVCQVIGMYDYTAQNDDDLAFNKGQIINVLNKEDPDWWKGEVNGQVGLFPSNYVKLTT | -0.263 ± 0.15
35 | AVCQVIGMYDYTAQNDDRLAFNKGQIINVLNKEDPDWWKGEVNGQVGLFPSNYVKLTT | -0.819 ± 0.12
36 | AVCQVIGMYDYTAQNDDVLAFNKGQIINVLNKEDPDWWKGEVNGQVGLFPSNYVKLTT | -0.722 ± 0.12
37 | AVCQVIGMYDYTAQNDDTLAFNKGQIINVLNKEDPDWWKGEVNGQVGLFPSNYVKLTT | -0.908 ± 0.25
38 | AVCQVIGMYDYTAQNDDMLAFNKGQIINVLNKEDPDWWKGEVNGQVGLFPSNYVKLTT | -0.696 ± 0.21
39 | AVCQVIGMYDYTAQNDDALAFNKGQIINVLNKEDPDWWKGEVNGQVGLFPSNYVKLTT | -0.646 ± 0.14
40 | AVCQVIGMYDYTAQNDDFLAFNKGQIINVLNKEDPDWWKGEVNGQVGLFPSNYVKLTT | -0.466 ± 0.17
41 | AVCQVIGMYDYTAQNDDGLAFNKGQIINVLNKEDPDWWKGEVNGQVGLFPSNYVKLTT | -0.317 ± 0.091
42 | AVCQVIGMYDYTAQNDDLLAFNKGQIINVLNKEDPDWWKGEVNGQVGLFPSNYVKLTT | -0.745 ± 0.14
43 | AVCQVIGMYDYTAQNDDILAFNKGQIINVLNKEDPDWWKGEVNGQVGLFPSNYVKLTT | -0.853 ± 0.27
44 | AVCQVIGMYDYTAQNDDHLAFNKGQIINVLNKEDPDWWKGEVNGQVGLFPSNYVKLTT | -0.208 ± 0.18
45 | AVCQVIGMYDYTAQNDDPLAFNKGQIINVLNKEDPDWWKGEVNGQVGLFPSNYVKLTT | -0.919 ± 0.23
